Laboratory results: patent US20260008852A1 (CRYSTAL BIOSCIENCE, published 2026)
Where a chain is given by its changes, count along the chain named.

T1: his-tagged B7-H3 (UniProt Q5ZPR3-2 29-245, limits assumed)
T1 construct: also called CD276; not shown: His tag
T1 sequence (looked up): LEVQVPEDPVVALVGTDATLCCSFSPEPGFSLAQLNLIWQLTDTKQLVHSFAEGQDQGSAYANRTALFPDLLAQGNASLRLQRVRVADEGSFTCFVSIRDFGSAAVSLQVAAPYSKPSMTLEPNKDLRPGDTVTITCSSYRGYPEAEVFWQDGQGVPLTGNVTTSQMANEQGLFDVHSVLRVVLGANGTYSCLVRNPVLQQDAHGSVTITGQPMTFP

B1: 40511p1.1.C3 scFv-Fc (scFv, V domains shown)
VH: DVQLVESGGGVVRPGGSLRLSCAASGFTFRIYGMTWVRQAPGEGLEWVSTISGSGNSTYYADSVKGRFTISRDNSKNTLYLQMNSLRAEDTAVYYCAKTWNNYRFFDYWGLGTLVTVSS
VL: EIVLTQSPGTLSLSPGERATLSCRASQPINSSYLAWYQQKPGQAPRLLIYAASSRATDIPDRFSGSGSGTDFTLTISSLQSEDFAVYYCQQYYDWPQFTFGGGTKVEIK
B2: 40511p1.2.A8 scFv-Fc (scFv, V domains shown)
VH: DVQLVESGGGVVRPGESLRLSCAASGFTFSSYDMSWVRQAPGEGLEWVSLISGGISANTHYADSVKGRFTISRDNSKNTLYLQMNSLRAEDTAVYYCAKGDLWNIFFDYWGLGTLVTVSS
VL: EIVLTQSPATLSVSPGERATFSCRASQNVRSYLAWYQQKPGQAPRLLIFNTVTRATGIPDRFSGSGSGTDFTLTISSLEPEDFAVYYCQQYYDWPPLTFGGGTKVEIK
B3: 40579p1.C2 scFv-Fc (scFv, V domains shown)
VH: EVQLLESGGDLVQPGGSLRLSCAASGFNFSSYWMSWVRQAPGKGLEWVSGISISYGGNAYYADSVKGRFTVSRDNSKNTLYLQMNSLRAEDTAVYYCGRDRSPYQYRSMDVWGQGTTVTVSS
VL: EIVLTQSPATLSVSPGERATFSCRASQTIGNKLAWYQQKPGQAPRLLIFSASTRATDIPDRFSGSGSGTDFTLTISSLQSEDFAVYYCQQYNNWPPLTFGGGTKVEIK
notes: Tested as scFv-Fc supernatant
B4: 40579p1.D8 scFv-Fc (scFv, V domains shown)
VH: B3 VH with D10G, N28T, S31D, W33Y, G50S, N58T, A59T, V71I, G98A, Y106C
VL: EIVLTQSPGTLSLSPGERATLSCRASQSIRSDLAWYQQKPGQAPRLLIYNTVTRATGVPDRFSGSGSGTEFTLTISSLQSEDFAVYYCQQYNSWPPLTFGGGTKVEIK
notes: Tested as scFv-Fc supernatant
B5: 40579p1.F7 scFv-Fc (scFv, V domains shown)
VH: B3 VH with D10G, N28T, S31D, W33Y
VL: EIVLTQSPGTLSLSPGERATLTCRASQSVGDFLAWYQQKPGQAPRLLIYGASTRAAGIPARFRGSGSGTDFTLTISSLQSEDFAVYYCQQYKNWPPLTFGGGTKVEIK
notes: Tested as scFv-Fc supernatant
B6: 40511p1.1.A1 scFv-Fc (scFv, V domains shown)
VH: DVQLVESGGGVVRPGESLRLSCAASGFTFSNYAMNWVRQAPGEGLEWVSRINYKGYNITYYADSVKGRFTISRDNSKNTLYLQMNSLRAEDTAVYYCAKSGSNSNNFFDYWGLGTLVTVSS
VL: EIVLTQSPGTLSVSPGERATLSCRASQSVNSKLAWYQQRPGQAPRLLIYDASSRATGIPDRFSGSGSGTDFTLTISRLEPEDFAVYYCQQYKNWPPLTFGGGTKVEIK
notes: Tested as scFv-Fc supernatant
B7: 40511p1.1.H5 scFv-Fc (scFv, V domains shown)
VH: B6 VH
VL: B4 VL with N50G, T51A, V52A, T53S, V58I, D60A, E81G
notes: Tested as scFv-Fc supernatant
B8: 40511p1.1.H10 scFv-Fc (scFv, V domains shown)
VH: B6 VH
VL: EIVLTQSPGNLSLSPGERATLSCRASQSVGSQLGWYQQKPGQAPRLLIYGASTRATGIPDRFSGSGSGTEFALTISSLQSEDFAVYYCQQYYDWPPLTFGGGTKVEIK
B9: 40579p1.B8 scFv-Fc (scFv, V domains shown)
VH: EVQLLESGGGLVQPGGSLRLSCAASGFTFSDYYMSWVRQAPGKGLEWVSGISMSSTIYYADSVKGRFTISRDNSKNTLYLQMNSLRAEDTAVYYCARHRSPYQYRSMDVWGQGTTVTVSS
VL: B6 VL with V13L, R39K, A43P, R45S, S53R, D70E, R77S, E79Q, P80S, K92N
B10: 40511p1.2.A12 scFv-Fc (scFv, V domains shown)
VH: DVQLVESGGGVVRPGESLRLSCAASGFTFSSYAESWVRQAPGEGLEWVSIISGSGGNTFYADSVKGRFTISRDNSKNTLYLQMNSLRAEDTAVYYCARFAYGFFDYWGLGTLVTVSS
VL: B3 VL with A9G, F21L, I29V, N31S, A43P, R45S, F49Y, S50D, D57G, N92R
notes: Tested as scFv-Fc supernatant; also called 40511p1.2.Al2
B11: 40511p1.1.G1 scFv-Fc (scFv, V domains shown)
VH: B10 VH
VL: EIVLTQSPGTLSVSPGEGATLSCRASQTVGSKLAWYQQKPGQPPSLLIYDASTRATGIPDRFSGSGSGTDFTLTISSLQSEDFAVYYCQQYRNWPPLTFGGGTKVEIK
notes: Tested as scFv-Fc supernatant
B12: 40511p1.2.G10 scFv-Fc (scFv, V domains shown)
VH: B6 VH
VL: B8 VL with N10T, S28T, Q32K, G34A, G57D, A72T, Y92I, D93N, T98S
notes: Tested as scFv-Fc supernatant
B13: 40511p1.2.A4 scFv-Fc (scFv, V domains shown)
VH: B10 VH
VL: B11 VL with G18R, P43A, S45R, G57D
notes: Tested as scFv-Fc supernatant
B14: 40511p1.1.D3 scFv-Fc (scFv, V domains shown)
VH: DVQLVESGGGVVRPGGSLRLSCAASGFTFRSYGMNWVRQAPGEGLEWVSRMSSGGGAYYADSVKGRFTISRDNSKNTLYLQMNSLRAEDTAVYYCARNSRDFFFDQWGLGTLVTVSS
VL: B8 VL with I2T, N10T, G30N, Q32K, G34A, T53S, D60A, A72T, S80T, Y92S
B15: 40579p1.E5 scFv-Fc (scFv, V domains shown)
VH: EVQLLESGGGLVQPGGSLRLSCAASGFTFSDDWMTWVRQAPGKGLEWVSAINWNGNSTHYADSVKGRFTVSRDNSKNTLYLQMNSLRAEDTAVYYCAKSRTTYYSSMDVWGQGTTVTVSS
VL: EIVLTQSPGTLSLSPGERATLSCRASQTVGSYLAWYQQKPGQAPRLLIYGASSRATGIPARFSGSGSGTDFTLTISSLQSEDFAVYYCQHYYDWPPYSFGGGTKVEIK
B16: 40579p1.G1 scFv-Fc (scFv, V domains shown)
VH: B3 VH with D10G
VL: B4 VL with N50G, T51A, V52S, T53S, V58I, D60A, S93N
notes: Tested as scFv-Fc supernatant
B17: 40579p1.H7 scFv-Fc (scFv, V domains shown)
VH: B3 VH
VL: B4 VL with N50G, T51A, V52S, T53S, V58I, D60A, S93N
notes: Tested as scFv-Fc supernatant
B18: 40579p1.H6 scFv-Fc (scFv, V domains shown)
VH: EVQLLESGGGLVQPGGSLRLSCAASGFTVNNAWMSWVRQAPGKGLEWVSAISYGGSIYYADSVKGRFTISRDNSKNTLYLQMNSLRAEDTAVYYCAKHRSTTYNGMDVWGQGTTVTVSS
VL: B5 VL with T22S, D31S, S52N, A60D, S67N, K92Y, N93D
B19: 40511p1.1.D8 scFv-Fc (scFv, V domains shown)
VH: DVQLVESGGGVVRPGESLRLSCAASGFTFSSYAMSWVRQAPGEGLEWVSSISGSGGSTLYADSVKGRFTISRDSSNNSLYLQMNSLRAEDTAVYYCAKARNNFFDYWGLGTLVTVSS
VL: EIVLTQSPGTLTLSPGERATLSCRASRSILTSLAWYQQRPGQAPRLLIYGANSRATGIPDRFSGSGSGTEFTLTISSLQSEDFAVYYCQQYYDWLTITFGGGTKVEIK
B20: 40511p1.2.B5 scFv-Fc (scFv, V domains shown)
VH: B19 VH
VL: B19 VL with A43T
B21: 40511p1.1.C4 scFv-Fc (scFv, V domains shown)
VH: DVQLVESGGGVVRPGESLRLSCAASGFTFSSYAMSWVRQAPGEGLEWVSRISGSGNSTDYAESVKGRFTISRDSSKNTLYLQMNSLRAEDTAVYYCAKHSTVSFFDYWGLGTLVTVSS
VL: EIVLTQSPGTLSLSPGERATLSCRASQSISSRYLAWYQQKPGQAPRLLIYGASRRATGIPARFSGSGSGTEFTLTISSLQSEDFAVYYCQQYGHWPPLTFGGGTKVEIK
B22: 40511p1.1.D6 scFv-Fc (scFv, V domains shown)
VH: DVQLVESGGGVVRPGESLTLSCAASGFTINSYAVSWVRQAPGEGLEWVSGISGSGVRYYADSVKGRFTISRDNSNNTLYLQMNSLRAEDTAVYYCARSNKVTWNNFFDYWGLGTLVTVSS
VL: EVVLTQSPGTLTLSPGERATLSCRASRSILTSLAWYQQKPGQAPRLLIYNTVTRATGIPARFSGSGSGTEFTLTINSLQSEDFAVYYCQQYYDWPPLTFGGGTKVEIK
notes: Tested as scFv-Fc supernatant
B23: 40511p1.1.G3 scFv-Fc (scFv, V domains shown)
VH: B22 VH with N73D
VL: B22 VL
notes: Tested as scFv-Fc supernatant

Target: T1, his-tagged B7-H3
Assay: SPR, Carterra LSA; binder captured by anti-human Fc, his-tagged B7-H3 injected
Protocol: Binding affinities of anti-B7-H3 antibodies to B7-H3 were measured by Surface Plasmon Resonance (SPR) on a Carterra LSA instrument. Goat anti-human Fc antibody was amine coupled to a HC30M chip. ScFv-Fc supernatants were diluted 30-fold with HBSTE and were captured by the anti-human Fc coupled HC30M chip. A 1:2 dilution series of his-tagged B7-H3, starting at 400 nM, was injected onto the chip for binding. Data was analyzed using the Carterra TM Kinetics software.

| Binder | Kd [nM] | koff [s⁻¹] | kon [M⁻¹ s⁻¹] |
| --- | --- | --- | --- |
| B1 | 47.7 | 0.02 | 406000 |
| B2 | 0.639 |  | 364000 |
| B3 | 9.11 |  | 452000 |
| B4 | 44.2 |  | 25700 |
| B5 | 212 | 0.02 | 108000 |
| B6 | 463 | 0.04 | 93000 |
| B7 | 123 |  | 10300 |
| B8 | 1.41 |  | 752000 |
| B9 | 3.1 |  | 622000 |
| B10 | 25.1 | 0.03 | 1.32e+06 |
| B11 | 54.4 | 0.02 | 458000 |
| B12 | 15 | 0.01 | 645000 |
| B13 | 52 | 0.04 | 768000 |
| B14 | 321 | 0.04 | 109000 |
| B15 | 2.51 |  | 493000 |
| B16 | 6.75 |  | 260000 |
| B17 | 5.57 |  | 281000 |
| B18 | 7.72 |  | 252000 |
| B19 | 71.8 | 0.02 | 340000 |
| B20 | 61.2 | 0.05 | 795000 |
| B21 | 17.1 |  | 76900 |
| B22 | 0.325 |  | 669000 |
| B23 | 0.759 |  | 494000 |
